Data on 1 protein can be found in ChEMBL document CHEMBL4304758, “Development of Peptide-Based Sirtuin Defatty-Acylase Inhibitors Identified by the Fluorescence Probe, SFP3, That Can Efficiently Measure Defatty-Acylase Activity of Sirtuin” (J Med Chem, 2019).

Compound in data set [1]: CCCCCCCCCCCCCC(=S)NCCCC[C@H](NC(=O)[C@@H](NC(=O)[C@H](CCCNC(=N)N)NC(C)=O)[C@@H](C)CC)C(=O)N[C@@H](CCCNC(=N)N)C(=O)N[C@@H](Cc1ccc(O)cc1)C(N)=O
Kind of data set: Mixed-inhibition of recombinant human SIRT2 defatty-acylase activity assessed as substrate Km at 15 nM using varying levels of SFP3 as substrate measured at 1 min interval for 30 mins in presence of NAD+ by Michaelis-Menten plot analysis (reference value: 0.55 +/- 0.04 uM).

Compound in data set [2]: CC[C@H](C)[C@H](NC(=O)[C@H](CCCNC(=N)N)NC(C)=O)C(=O)N[C@@H](CCCCNC(=O)Cc1ccc(/N=N/c2ccc(O)cc2)cc1)C(=O)N[C@@H](CCCNC(=N)N)C(=O)N[C@@H](Cc1ccc(O)cc1)C(N)=O
The data set is described as above.

Compound in data set [3]: CCCCCCCCCCCCCC(=S)NCCCC[C@H](NC(=O)[C@@H](NC(=O)[C@H](CCCNC(=N)N)NC(C)=O)[C@@H](C)CC)C(=O)N[C@@H](CCCNC(=N)N)C(=O)N[C@@H](Cc1ccc(O)cc1)C(N)=O
Kind of data set: Mixed-inhibition of recombinant human SIRT2 defatty-acylase activity assessed as substrate Km at 20 nM using varying levels of SFP3 as substrate measured at 1 min interval for 30 mins in presence of NAD+ by Michaelis-Menten plot analysis (reference value: 0.55 +/- 0.04 uM).

Compound in data set [4]: CC[C@H](C)[C@H](NC(=O)[C@H](CCCNC(=N)N)NC(C)=O)C(=O)N[C@@H](CCCCNC(=O)Cc1ccc(/N=N/c2ccc(O)cc2)cc1)C(=O)N[C@@H](CCCNC(=N)N)C(=O)N[C@@H](Cc1ccc(O)cc1)C(N)=O
Described as above.

Compound in data set [5]: CCCCCCCCCCCCCC(=S)NCCCC[C@H](NC(=O)[C@@H](NC(=O)[C@H](CCCNC(=N)N)NC(C)=O)[C@@H](C)CC)C(=O)N[C@@H](CCCNC(=N)N)C(=O)N[C@@H](Cc1ccc(O)cc1)C(N)=O
Briefly: Mixed-inhibition of recombinant human SIRT2 defatty-acylase activity assessed as substrate Km at 30 nM using varying levels of SFP3 as substrate measured at 1 min interval for 30 mins in presence of NAD+ by Michaelis-Menten plot analysis (reference value: 0.55 +/- 0.04 uM).

Compound in data set [6]: CC[C@H](C)[C@H](NC(=O)[C@H](CCCNC(=N)N)NC(C)=O)C(=O)N[C@@H](CCCCNC(=O)Cc1ccc(/N=N/c2ccc(O)cc2)cc1)C(=O)N[C@@H](CCCNC(=N)N)C(=O)N[C@@H](Cc1ccc(O)cc1)C(N)=O
The data set is described as above.

B1: NAD-dependent protein deacetylase sirtuin-2 (Homo sapiens), Q8IXJ6 (protein)
chain: MAEPDPSHPLETQAGKVQEAQDSDSDSEGGAAGGEADMDFLRNLFSQTLSLGSQKERLLDELTLEGVARYMQSERCRRVICLVGAGISTSAGIPDFRSPSTGLYDNLEKYHLPYPEAIFEISYFKKHPEPFFALAKELYPGQFKPTICHYFMRLLKDKGLLLRCYTQNIDTLERIAGLEQEDLVEAHGTFYTSHCVSASCRHEYPLSWMKEKIFSEVTPKCEDCQSLVKPDIVFFGESLPARFFSCMQSDFLKVDLLLVMGTSLQVQPFASLISKAPLSTPRLLINKEKAGQSDPFLGMIMGLGGGMDFDSKKAYRDVAWLGECDQGCLALAELLGWKKELEDLVRREHASIDAQSGAGVPNPSTSASPKKSPPPAKDEARTTEREKPQ
As a reminder, the Km is the concentration of substrate that gives half-maximal velocity. In the case of B1, the Km in data set [1] amounted to 0.47 µM; in data set [2], 0.76 µM; in data set [3] it was 0.48 µM; in data set [4] it was 1.1 µM; in data set [5] it was 1.1 µM; in data set [6], 2.5 µM.
